Source: paper PMC9352680, “A comprehensive thermodynamic model for RNA binding by the Saccharomyces cerevisiae Pumilio protein PUF4”
Residue numbers refer to the chain shown, from its start. Names may count otherwise.

B1: Ib_S4_P5E.1_K5.1_C5.1_H5.1_[G2T]_A5.1_[T5C]_F5.1_T5.1 (ssRNA)
RNA: UUUGACAACUGAUCGUUCUUUCUUUUACUAUUAUUCUUUCUCGAUCAGUUGUCUUU
B2: Ic_S4_P5E.1_K5.1_C5.1_H5.1_A5.1_[T6G]_[A7C]_F5.1_T5.1 (ssRNA)
RNA: B1 RNA with U25G, C28U, U29G, A30C
B3: Ib_S4_P5E.1_K5.1_C5.1_H5.1_[T3C]_A5.1_[A7T]_F5.1_T5.1 (ssRNA)
RNA: B1 RNA with U25G, U26C, C28U, A30U
B4: Ib_S4_P5E.1_K5.1_C5.1_H5.1_[G2T]_A5.1_[A7C]_F5.1_T5.1 (ssRNA)
RNA: B1 RNA with C28U, A30C
B5: Ib_S4_P5E.1_K5.1_C5.1_H5.1_A5.1_[T5A]_[A7G]_F5.1_T5.1 (ssRNA)
RNA: B1 RNA with U25G, C28A, A30G
B6: Ib_S4_P5E.1_K5.1_C5.1_H5.1_[T3C]_A5.1_[T5C]_F5.1_T5.1 (ssRNA)
RNA: B1 RNA with U25G, U26C
B7: Ib_S4_P5E.1_K5.1_C5.1_H5.1_[T3C]_A5.1_[A7C]_F5.1_T5.1 (ssRNA)
RNA: B1 RNA with U25G, U26C, C28U, A30C
B8: Ib_S4_P5E.1_K5.1_C5.1_H5.1_[G2T]_A5.1_[T5A]_F5.1_T5.1 (ssRNA)
RNA: B1 RNA with C28A
B9: Ie_S4_P4E.1_K4.1_C4.1_H4.1_[+3C]_A4.1_F4.1_T4.1 (ssRNA)
RNA: B1 RNA with U25G, A27C, C28A
B10: Ie_S4_P4E.1_K4.1_C4.1_H4.1_[+3T]_A4.1_F4.1_T4.1 (ssRNA)
RNA: B1 RNA with U25G, A27U, C28A
B11: Ib_S4_P5E.1_K5.1_C5.1_H5.1_A5.1_[T6A]_[A7G]_F5.1_T5.1 (ssRNA)
RNA: B1 RNA with U25G, C28U, U29A, A30G
B12: Ib_S4_P5E.1_K5.1_C5.1_H5.1_A5.1_[T6A]_[A7C]_F5.1_T5.1 (ssRNA)
RNA: B1 RNA with U25G, C28U, U29A, A30C
B13: Ia_S4_P5E.1_K5.1_C5.1_H5.1_A5.1_F5.1_[T8A]_T5.1 (ssRNA)
RNA: B1 RNA with U25G, C28U, U31A
B14: Ib_S4_P5E.1_K5.1_C5.1_H5.1_[A4C]_A5.1_[A7G]_F5.1_T5.1 (ssRNA)
RNA: B1 RNA with U25G, A27C, C28U, A30G
B15: Ib_S4_P5E.1_K5.1_C5.1_H5.1_[G2A]_A5.1_[T5G]_F5.1_T5.1 (ssRNA)
RNA: B1 RNA with U25A, C28G
B16: Ib_S4_P5E.1_K5.1_C5.1_H5.1_[A4T]_A5.1_[T6A]_F5.1_T5.1 (ssRNA)
RNA: B1 RNA with U25G, A27U, C28U, U29A
B17: Ia_S4_P5E.1_K5.1_C5.1_H5.1_A5.1_F5.1_[T9C]_T5.1 (ssRNA)
RNA: B1 RNA with U25G, C28U, U32C
B18: Ib_S4_P5E.1_K5.1_C5.1_H5.1_[G2C]_A5.1_[T6A]_F5.1_T5.1 (ssRNA)
RNA: B1 RNA with U25C, C28U, U29A
B19: Ib_S4_P5E.1_K5.1_C5.1_H5.1_[G2C]_A5.1_[T6C]_F5.1_T5.1 (ssRNA)
RNA: B1 RNA with U25C, C28U, U29C
B20: Ib_S4_P5E.1_K5.1_C5.1_H5.1_[G2A]_A5.1_[T6A]_F5.1_T5.1 (ssRNA)
RNA: B1 RNA with U25A, C28U, U29A
B21: Ib_S4_P5E.1_K5.1_C5.1_H5.1_A5.1_[T6C]_[A7C]_F5.1_T5.1 (ssRNA)
RNA: B1 RNA with U25G, C28U, U29C, A30C
B22: Ib_S4_P5E.1_K5.1_C5.1_H5.1_[T3C]_A5.1_[T5A]_F5.1_T5.1 (ssRNA)
RNA: B1 RNA with U25G, U26C, C28A
B23: Ib_S4_P5E.1_K5.1_C5.1_H5.1_A5.1_[T5C]_[A7T]_F5.1_T5.1 (ssRNA)
RNA: B1 RNA with U25G, A30U
B24: Ib_S4_P5E.1_K5.1_C5.1_H5.1_[A4C]_A5.1_[T5C]_F5.1_T5.1 (ssRNA)
RNA: B1 RNA with U25G, A27C
B25: Ib_S4_P5E.1_K5.1_C5.1_H5.1_[A4C]_A5.1_[A7C]_F5.1_T5.1 (ssRNA)
RNA: B1 RNA with U25G, A27C, C28U, A30C
B26: Ib_S4_P5E.1_K5.1_C5.1_H5.1_[A4C]_A5.1_[T5G]_F5.1_T5.1 (ssRNA)
RNA: B1 RNA with U25G, A27C, C28G
B27: Ib_S4_P5E.1_K5.1_C5.1_H5.1_A5.1_[T5A]_[A7T]_F5.1_T5.1 (ssRNA)
RNA: B1 RNA with U25G, C28A, A30U
B28: Ib_S4_P5E.1_K5.1_C5.1_H5.1_[G2A]_A5.1_[A7G]_F5.1_T5.1 (ssRNA)
RNA: B1 RNA with U25A, C28U, A30G
B29: Ib_S4_P5E.1_K5.1_C5.1_H5.1_A5.1_[T5C]_[T6C]_F5.1_T5.1 (ssRNA)
RNA: B1 RNA with U25G, U29C
B30: Ib_S4_P5E.1_K5.1_C5.1_H5.1_[T3C]_A5.1_[A7G]_F5.1_T5.1 (ssRNA)
RNA: B1 RNA with U25G, U26C, C28U, A30G
B31: Ib_S4_P5E.1_K5.1_C5.1_H5.1_A5.1_[T5C]_[T6A]_F5.1_T5.1 (ssRNA)
RNA: B1 RNA with U25G, U29A
B32: Ic_S4_P4E.1_K4.1_C4.1_H4.1_A4.1_[T7G]_F4.1_T4.1 (ssRNA)
RNA: UUUGACAACUGAUCGUUCUUUCUUGUAUAGUAUUCUUUCUCGAUCAGUUGUCUUU
B33: Ia_S4_P4E.1_K4.1_C4.1_H4.1_A4.1_[T7C]_F4.1_T4.1 (ssRNA)
RNA: B32 RNA with G30C
B34: Ia_S4_P4E.1_K4.1_C4.1_H4.1_A4.1_[T7A]_F4.1_T4.1 (ssRNA)
RNA: B32 RNA with G30A

target: T1, PUF4 RNA-binding domain (Saccharomyces cerevisiae, UniProt P25339 537-888); assay: Mg; RNA-MaP; 20 mM Na-HEPES pH 7.4, 30 mM KOAc, 0.75 mM MgCl2, 0.1% Tween-20, 5% glycerol, 0.1 mg/mL BSA, 2 mM DTT; 25 C; 0.0125-409.6 nM protein; conditions: tags: N-His6-TEV cleaved; C-SNAP kept, Cy3B-labelled; label: tethered on chip by stalled RNA polymerase
T1 sequence: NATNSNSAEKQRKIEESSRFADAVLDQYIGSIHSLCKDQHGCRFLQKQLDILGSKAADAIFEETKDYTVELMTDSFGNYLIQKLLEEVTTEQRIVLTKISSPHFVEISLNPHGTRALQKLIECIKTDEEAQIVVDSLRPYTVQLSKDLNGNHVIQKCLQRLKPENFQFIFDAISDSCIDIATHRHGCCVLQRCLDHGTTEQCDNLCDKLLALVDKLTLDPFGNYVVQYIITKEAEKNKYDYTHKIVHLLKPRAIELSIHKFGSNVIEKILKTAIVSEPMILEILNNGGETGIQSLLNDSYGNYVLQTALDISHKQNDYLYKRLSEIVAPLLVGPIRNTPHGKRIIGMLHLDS

Binder	Kd [nM]
UCUCUUUGUACGGUUCUCUU (ssRNA) [Ic_S1_P3E.1_K3.1_C3.1_H3.1_A3.1_[T5C]_[A6G]_F3.1_[T7G]_[A8T]_T3.1]	385
UCUCUUUGUAGCAUUCUCUU (ssRNA) [Ic_S1_P3E.1_K3.1_C3.1_H3.1_A3.1_[T5G]_[A6C]_F3.1_[T7A]_[A8T]_T3.1]	42.4
UCUCUUUGUAGCUGUCUCUU (ssRNA) [Ic_S1_P3E.1_K3.1_C3.1_H3.1_A3.1_[T5G]_[A6C]_F3.1_[A8G]_T3.1]	864
UCUCUUUGUACGCAUCUCUU (ssRNA) [Ic_S1_P3E.1_K3.1_C3.1_H3.1_A3.1_[T5C]_[A6G]_F3.1_[T7C]_T3.1]	872
UCUCUUUGUAGUCCUCUCUU (ssRNA) [Ic_S1_P3E.1_K3.1_C3.1_H3.1_A3.1_[T5G]_[A6T]_F3.1_[T7C]_[A8C]_T3.1]	2000
UCUCUUUGUUUAUAUCUCUU (ssRNA) [Ia_S1_P3E.1_K3.1_C3.1_H3.1_[A4T]_A3.1_F3.1_T3.1]	478
UCUCUUUGUAGUAAUCUCUU (ssRNA) [Ic_S1_P3E.1_K3.1_C3.1_H3.1_A3.1_[T5G]_[A6T]_F3.1_[T7A]_T3.1]	1270
UCUCUUUGUAGCUCUCUCUU (ssRNA) [Ic_S1_P3E.1_K3.1_C3.1_H3.1_A3.1_[T5G]_[A6C]_F3.1_[A8C]_T3.1]	> 2300
UCUCUUUGUAGUCUUCUCUU (ssRNA) [Ic_S1_P3E.1_K3.1_C3.1_H3.1_A3.1_[T5G]_[A6T]_F3.1_[T7C]_[A8T]_T3.1]	513
UCUCUUUGUAGUGUUCUCUU (ssRNA) [Ic_S1_P3E.1_K3.1_C3.1_H3.1_A3.1_[T5G]_[A6T]_F3.1_[T7G]_[A8T]_T3.1]	659
UCUCUUUGUAGUGCUCUCUU (ssRNA) [Ic_S1_P3E.1_K3.1_C3.1_H3.1_A3.1_[T5G]_[A6T]_F3.1_[T7G]_[A8C]_T3.1]	> 2300
UCUCUUUGUAGCAGUCUCUU (ssRNA) [Ic_S1_P3E.1_K3.1_C3.1_H3.1_A3.1_[T5G]_[A6C]_F3.1_[T7A]_[A8G]_T3.1]	1740
UCUCUUUGUACGCUUCUCUU (ssRNA) [Ic_S1_P3E.1_K3.1_C3.1_H3.1_A3.1_[T5C]_[A6G]_F3.1_[T7C]_[A8T]_T3.1]	62.7
UCUCUUUGUAGCCAUCUCUU (ssRNA) [Ic_S1_P3E.1_K3.1_C3.1_H3.1_A3.1_[T5G]_[A6C]_F3.1_[T7C]_T3.1]	1850
UCUCUUUGUAGUACUCUCUU (ssRNA) [Ic_S1_P3E.1_K3.1_C3.1_H3.1_A3.1_[T5G]_[A6T]_F3.1_[T7A]_[A8C]_T3.1]	1210
UCUCUUUGUAGCGUUCUCUU (ssRNA) [Ic_S1_P3E.1_K3.1_C3.1_H3.1_A3.1_[T5G]_[A6C]_F3.1_[T7G]_[A8T]_T3.1]	1510
UCUCUUUGUAGUUGUCUCUU (ssRNA) [Ic_S1_P3E.1_K3.1_C3.1_H3.1_A3.1_[T5G]_[A6T]_F3.1_[A8G]_T3.1]	1680
UCUCUUUGUAGUCAUCUCUU (ssRNA) [Ic_S1_P3E.1_K3.1_C3.1_H3.1_A3.1_[T5G]_[A6T]_F3.1_[T7C]_T3.1]	2020
UCUCUUUGUAGCUUUCUCUU (ssRNA) [Ic_S1_P3E.1_K3.1_C3.1_H3.1_A3.1_[T5G]_[A6C]_F3.1_[A8T]_T3.1]	296
UCUCUUUGUAGUCGUCUCUU (ssRNA) [Ic_S1_P3E.1_K3.1_C3.1_H3.1_A3.1_[T5G]_[A6T]_F3.1_[T7C]_[A8G]_T3.1]	> 2300

Binder	Kd [nM]
UCUCUUUGUACGCCUCUCUU (ssRNA) [Ic_S1_P3E.1_K3.1_C3.1_H3.1_A3.1_[T5C]_[A6G]_F3.1_[T7C]_[A8C]_T3.1]	719
UCUCUUUGUAGUAUUCUCUU (ssRNA) [Ic_S1_P3E.1_K3.1_C3.1_H3.1_A3.1_[T5G]_[A6T]_F3.1_[T7A]_[A8T]_T3.1]	86.2
UCUCUUUGUACGGCUCUCUU (ssRNA) [Ic_S1_P3E.1_K3.1_C3.1_H3.1_A3.1_[T5C]_[A6G]_F3.1_[T7G]_[A8C]_T3.1]	1730
B1	> 2300
B2	12.5
B3	414
B4	> 2300
B5	15.3
B6	204
B7	1630
B8	> 2300
B9	5.86
B10	5.86
B11	10.7
B12	2.42
B13	6.15
B14	112
B15	1940
B16	16
B17	72

Binder	Kd [nM]
B18	> 2300
B19	1940
B20	696
B21	4.55
B22	872
B23	1.71
B24	19.9
B25	83.8
B26	34.4
B27	5.23
B28	904
B29	1.7
B30	1520
B31	3.97
UCUCUUUGUAGCAAUCUCUU (ssRNA) [Ic_S1_P3E.1_K3.1_C3.1_H3.1_A3.1_[T5G]_[A6C]_F3.1_[T7A]_T3.1]	1060
B32	1.66
B33	0.515
B34	1.23
UCUCUUUGUAGUUUUCUCUU (ssRNA) [Ic_S1_P3E.1_K3.1_C3.1_H3.1_A3.1_[T5G]_[A6T]_F3.1_[A8T]_T3.1]	403
UCUCUUUGUAGCCGUCUCUU (ssRNA) [Ic_S1_P3E.1_K3.1_C3.1_H3.1_A3.1_[T5G]_[A6C]_F3.1_[T7C]_[A8G]_T3.1]	> 2300
